Results taken from patent US20230322957A1 (ENGMAB SARL, published 2023).
Where a chain is given by its changes, count along the chain named.

T1: human BCMA on the cell surface (human, UniProt Q02223 1-184)
T1 sequence (looked up): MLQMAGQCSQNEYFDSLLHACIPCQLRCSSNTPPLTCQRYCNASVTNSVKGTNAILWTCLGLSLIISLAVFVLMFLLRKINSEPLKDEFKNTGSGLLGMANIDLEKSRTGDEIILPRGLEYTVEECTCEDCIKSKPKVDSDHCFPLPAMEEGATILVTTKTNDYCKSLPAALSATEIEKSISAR

B1: 21-TCBcv (bispecific antibody, human IgG1, kappa, L234A L235A)
heavy 1: not shown
heavy 2: EVQLLESGGGLVQPGGSLRLSCAASGFTFSDNAMGWVRQAPGKGLEWVSAISGPGSSTYYADSVKGRFTISRDNSKNTLYLQMNSLRAEDTAVYYCAKVLGWFDYWGQGTLVTVSSASTKGPSVFPLAPSSKSTSGGTAALGCLVEDYFPEPVTVSWNSGALTSGVHTFPAVLQSSGLYSLSSVVTVPSSSLGTQTYICNVNHKPSNTKVDEKVEPKSCDKTHTCPPCPAPEAAGGPSVFLFPPKPKDTLMISRTPEVTCVVVDVSHEDPEVKFNWYVDGVEVHNAKTKPREEQYNSTYRVVSVLTVLHQDWLNGKEYKCKVSNKALGAPIEKTISKAKGQPREPQVCTLPPSRDELTKNQVSLSCAVKGFYPSDIAVEWESNGQPENNYKTTPPVLDSDGSFFLVSKLTVDKSRWQQGNVFSCSVMHEALHNHYTQKSLSLSPGK
light 1: EIVLTQSPGTLSLSPGERATLSCRASQSVSEYYLAWYQQKPGQAPRLLIEHASTRATGIPDRFSGSGSGTDFTLTISRLEPEDFAVYYCQQYGYPPDFTFGQGTKVEIKRTVAAPSVFIFPPSDRKLKSGTASVVCLLNNFYPREAKVQWKVDNALQSGNSQESVTEQDSKDSTYSLSSTLTLSKADYEKHKVYACEVTHQGLSSPVTKSFNRGEC
light 2: EVQLLESGGGLVQPGGSLRLSCAASGFTFSTYAMNWVRQAPGKGLEWVSRIRSKYNNYATYYADSVKGRFTISRDDSKNTLYLQMNSLRAEDTAVYYCVRHGNFGNSYVSWFAYWGQGTLVTVSSASVAAPSVFIFPPSDEQLKSGTASVVCLLNNFYPREAKVQWKVDNALQSGNSQESVTEQDSKDSTYSLSSTLTLSKADYEKHKVYACEVTHQGLSSPVTKSFNRGEC
B2: 42-TCBcv (bispecific antibody, human IgG1, kappa, L234A L235A)
heavy 1: not shown
heavy 2: B1 heavy 2
light 1: B1 light 1 with E31D, Y32E, A35S, E50H, H51S, T75A
light 2: B1 light 2
B3: 22-TCBcv (bispecific antibody, human IgG1, kappa, L234A L235A)
heavy 1: not shown
heavy 2: B1 heavy 2
light 1: B1 light 1 with E31S, E50S, H51G, S53G, T54S
light 2: B1 light 2

Columns and labels:
Assay in all cases: cell-based or functional assay
[1] = target: T1, human BCMA on the cell surface
[2] = target: T1, human BCMA on the cell surface; remark: listed apart in the source
[3] = target: T1, human BCMA on the cell surface; remark: listed apart in the source
[4] = target: T1, human BCMA on the cell surface; remark: listed apart in the source
[5] = target: T1, human BCMA on the cell surface; remark: listed apart in the source
[6] = target: T1, human BCMA on the cell surface; remark: listed apart in the source

Binder	EC50 redirected T-cell killing of H929 cells (LDH release), Donor 1 [1] [nM]	EC50 redirected T-cell killing of H929 cells (LDH release), Donor 3 [1] [nM]	EC50 redirected T-cell killing of H929 cells (LDH release), Donor 4 [1] [nM]	EC50 redirected T-cell killing of H929 cells (LDH release), Donor 5 [1] [nM]	EC50 redirected T-cell killing of RPMI-8226 cells (LDH release), Donor 2 [2] [nM]	EC50 redirected T-cell killing of RPMI-8226 cells (LDH release), Donor 3 [2] [nM]	EC50 redirected T-cell killing of RPMI-8226 cells (LDH release), Donor 4 [2] [nM]	EC50 redirected T-cell killing of RPMI-8226 cells (LDH release), Donor 5 [2] [nM]	EC50 redirected T-cell killing of L363 cells (LDH release), Donor 1 [3] [nM]	EC50 redirected T-cell killing of L363 cells (LDH release), Donor 2 [3] [nM]	EC50 redirected T-cell killing of L363 cells (LDH release), Donor 3 [3] [nM]	EC50 redirected T-cell killing of L363 cells (LDH release), Donor 4 [3] [nM]	EC50 redirected T-cell killing of L363 cells (LDH release), Donor 5 [3] [nM]	Annexin-V positive patient bone marrow myeloma plasma cells (%) at 10 pM [4] [%]	Annexin-V positive patient bone marrow myeloma plasma cells (%) at 100 pM [4] [%]	Annexin-V positive patient bone marrow myeloma plasma cells (%) at 1000 pM [4] [%]	Annexin-V positive patient bone marrow myeloma plasma cells (%) at 10000 pM [4] [%]	Annexin-V positive patient bone marrow myeloma plasma cells (%) at 30000 pM [4] [%]	Annexin-V positive JJN-3 cells (%) at 0.1 pM, Experiment 2 [5] [%]	Annexin-V positive JJN-3 cells (%) at 1 pM, Experiment 1 [5] [%]	further results
B1	0.0971	0.0421	0.0539	0.0387	0.0413	0.0088	0.004	0.0084	0.0836	0.0384	0.0189	0.0191	0.0464	–	–	–	–	–	–	–	–
B2	0.0097	0.0117	0.0072	0.0068	0.383	0.0187	0.0035	0.0015	0.0155	0.0167	0.0052	0.0022	0.0106	19.6	10.5	30	39.9	52.5	12.8	11.9	Annexin-V positive JJN-3 cells (%) at 1 pM, Experiment 2 [5]: 13.5%; Annexin-V positive JJN-3 cells (%) at 10 pM, Experiment 1 [5]: 12.3%; Annexin-V positive JJN-3 cells (%) at 10 pM, Experiment 2 [5]: 13.6%; Annexin-V positive JJN-3 cells (%) at 100 pM, Experiment 1 [5]: 8.62%; Annexin-V positive JJN-3 cells (%) at 100 pM, Experiment 2 [5]: 14.4%; Annexin-V positive JJN-3 cells (%) at 1000 pM, Experiment 1 [5]: 16.8%; Annexin-V positive JJN-3 cells (%) at 1000 pM, Experiment 2 [5]: 21.7%; Annexin-V positive JJN-3 cells (%) at 10000 pM, Experiment 1 [5]: 24.8%; Annexin-V positive JJN-3 cells (%) at 10000 pM, Experiment 2 [5]: 26.9%; Lysis of JJN-3 cells (%) at 0.1 pM, Experiment 2 [6]: 17.6%; Lysis of JJN-3 cells (%) at 1 pM, Experiment 1 [6]: 40.3%; Lysis of JJN-3 cells (%) at 1 pM, Experiment 2 [6]: 34.9%; Lysis of JJN-3 cells (%) at 10 pM, Experiment 1 [6]: 39%; Lysis of JJN-3 cells (%) at 10 pM, Experiment 2 [6]: 39.4%; Lysis of JJN-3 cells (%) at 100 pM, Experiment 1 [6]: 41.9%; Lysis of JJN-3 cells (%) at 100 pM, Experiment 2 [6]: 55.3%; Lysis of JJN-3 cells (%) at 1000 pM, Experiment 1 [6]: 84%; Lysis of JJN-3 cells (%) at 1000 pM, Experiment 2 [6]: 81.1%; Lysis of JJN-3 cells (%) at 10000 pM, Experiment 1 [6]: 92.9%; Lysis of JJN-3 cells (%) at 10000 pM, Experiment 2 [6]: 90.4%
B3	0.0532	0.0422	0.0232	0.0289	0.0476	0.0076	0.0032	0.0055	0.0975	0.0277	0.0165	0.0146	0.056	14.2	14.8	31	51.7	55.7	14.8	9.3	Annexin-V positive JJN-3 cells (%) at 1 pM, Experiment 2 [5]: 15%; Annexin-V positive JJN-3 cells (%) at 10 pM, Experiment 1 [5]: 13.3%; Annexin-V positive JJN-3 cells (%) at 10 pM, Experiment 2 [5]: 15.9%; Annexin-V positive JJN-3 cells (%) at 100 pM, Experiment 1 [5]: 12.5%; Annexin-V positive JJN-3 cells (%) at 100 pM, Experiment 2 [5]: 18.4%; Annexin-V positive JJN-3 cells (%) at 1000 pM, Experiment 1 [5]: 26.1%; Annexin-V positive JJN-3 cells (%) at 1000 pM, Experiment 2 [5]: 27%; Annexin-V positive JJN-3 cells (%) at 10000 pM, Experiment 1 [5]: 22.9%; Annexin-V positive JJN-3 cells (%) at 10000 pM, Experiment 2 [5]: 29.7%; Lysis of JJN-3 cells (%) at 0.1 pM, Experiment 2 [6]: 36.5%; Lysis of JJN-3 cells (%) at 1 pM, Experiment 1 [6]: 4.29%; Lysis of JJN-3 cells (%) at 1 pM, Experiment 2 [6]: 24.4%; Lysis of JJN-3 cells (%) at 10 pM, Experiment 1 [6]: 73.6%; Lysis of JJN-3 cells (%) at 10 pM, Experiment 2 [6]: 41.7%; Lysis of JJN-3 cells (%) at 100 pM, Experiment 1 [6]: 56.3%; Lysis of JJN-3 cells (%) at 100 pM, Experiment 2 [6]: 53%; Lysis of JJN-3 cells (%) at 1000 pM, Experiment 1 [6]: 90.5%; Lysis of JJN-3 cells (%) at 1000 pM, Experiment 2 [6]: 94.1%; Lysis of JJN-3 cells (%) at 10000 pM, Experiment 1 [6]: 88%; Lysis of JJN-3 cells (%) at 10000 pM, Experiment 2 [6]: 91.2%
